# In US20190169269:
# T1: recombinant human tropoelastin (hTE) (Sigma-Aldrich), P15502
# T1 chain: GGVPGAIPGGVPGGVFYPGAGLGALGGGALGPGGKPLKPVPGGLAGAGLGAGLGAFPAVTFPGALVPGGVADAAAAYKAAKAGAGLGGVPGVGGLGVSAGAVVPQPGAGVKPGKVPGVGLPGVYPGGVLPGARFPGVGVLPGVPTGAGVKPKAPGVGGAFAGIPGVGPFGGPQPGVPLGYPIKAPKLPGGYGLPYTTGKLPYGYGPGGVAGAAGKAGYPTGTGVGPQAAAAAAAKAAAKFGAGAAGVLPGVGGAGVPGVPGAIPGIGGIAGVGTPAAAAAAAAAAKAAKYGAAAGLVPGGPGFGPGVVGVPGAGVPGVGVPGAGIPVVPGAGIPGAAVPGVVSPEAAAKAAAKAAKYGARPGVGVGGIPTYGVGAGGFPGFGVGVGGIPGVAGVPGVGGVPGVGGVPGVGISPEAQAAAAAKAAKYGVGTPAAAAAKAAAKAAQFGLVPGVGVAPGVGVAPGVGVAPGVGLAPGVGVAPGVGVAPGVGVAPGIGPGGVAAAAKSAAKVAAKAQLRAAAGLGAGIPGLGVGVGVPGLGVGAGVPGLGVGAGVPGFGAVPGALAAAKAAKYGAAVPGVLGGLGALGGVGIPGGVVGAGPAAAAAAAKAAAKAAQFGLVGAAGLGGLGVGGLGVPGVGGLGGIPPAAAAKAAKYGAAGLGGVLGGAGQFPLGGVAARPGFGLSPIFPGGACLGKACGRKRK
# T2: Elactiv′ polypeptide (polypeptide derived from tropoelastin, Cys-Flag-tagged)
# T2 chain: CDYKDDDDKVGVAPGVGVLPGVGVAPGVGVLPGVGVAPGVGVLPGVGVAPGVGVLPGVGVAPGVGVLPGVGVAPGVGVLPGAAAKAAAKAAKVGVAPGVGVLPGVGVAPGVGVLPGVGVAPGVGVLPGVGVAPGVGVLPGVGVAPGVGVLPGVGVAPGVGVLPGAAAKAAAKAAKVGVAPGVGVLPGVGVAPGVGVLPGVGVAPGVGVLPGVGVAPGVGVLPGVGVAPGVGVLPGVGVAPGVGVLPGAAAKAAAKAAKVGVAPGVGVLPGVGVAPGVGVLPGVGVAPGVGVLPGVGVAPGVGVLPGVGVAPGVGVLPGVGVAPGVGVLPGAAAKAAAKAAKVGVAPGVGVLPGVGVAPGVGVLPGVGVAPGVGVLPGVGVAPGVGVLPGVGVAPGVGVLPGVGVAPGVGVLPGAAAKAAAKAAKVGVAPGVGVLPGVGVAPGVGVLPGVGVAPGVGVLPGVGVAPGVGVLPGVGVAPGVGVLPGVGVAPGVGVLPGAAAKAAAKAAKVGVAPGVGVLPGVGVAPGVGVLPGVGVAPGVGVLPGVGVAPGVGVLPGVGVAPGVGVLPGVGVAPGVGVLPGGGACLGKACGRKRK
# B1: recombinant human MMP-12 (protein)
# chain: GPVWRKHYITYRINNYTPDMNREDVDYAIRKAFQVWSNVTPLKFSKINTGMADILVVFARGAHGDFHAFDGKGGILAHAFGPGSGIGGDAHFDEDEFWTTHSGGTNLFLTAVHEIGHSLGLGHSSDPKAVMFPTYKYVDINTFRLSADDIRGIQSLYGDPKENQRLPNPDNSEPALCDPNLSFDAVTTVGNKIFFFKDRFFWLKVSERPKTSVNLISSLWPTLPSGIEAAYEIEARNQVFLFKDDKYWLISNLRPEPNYPKSIHSFGFPNFVKKIDAAVFNPRFYRTYFFVDNQYWRYDERRQMMDPGYPKLITKNFQGIGPKIDAVFYSKNKYYYFFQGSNQFEYDFLLQRITKTLKSNSWFGC
# What was measured:
# [1] = biological target: T1, recombinant human tropoelastin (hTE) …
# [2] = biological target: T2, Elactiv′ polypeptide (polypeptide …)
protein,measurement,setting,value
B1,"kinetics of degradation by rhMMP-12, Western blot",[1],"Elactiv′ is progressively degraded by MMP-12, but to a lesser extent than human tropoelastin"
same,"kinetics of degradation by rhMMP-12, Western blot",[2],"Elactiv′ is progressively degraded by MMP-12, but to a lesser extent than human tropoelastin"
